In patent US20150087581A1 (AURIGENE DISCOVERY TECHNOLOGIES, published 2015):
Bridges are numbered along the chain shown (N, C = ends). Where no end group is shown, it is not given here. [ ]: non-standard residue; d: D form. The star is where a group is joined. Biotin = O=C1N[C@H]2[C@H](CS[C@H]2CCCCC(=O)*)N1; Palmitoyl = CCCCCCCCCCCCCCCC(=O)*; SNTSESF = not defined here; Octanoyl = CCCCCCCC(=O)*; Ahx = NCCCCCC(=O)O

T1: recombinant hPDL-2 overexpressed on HEK 293 cells (human, UniProt Q9BQ51 20-273)
T1 chain: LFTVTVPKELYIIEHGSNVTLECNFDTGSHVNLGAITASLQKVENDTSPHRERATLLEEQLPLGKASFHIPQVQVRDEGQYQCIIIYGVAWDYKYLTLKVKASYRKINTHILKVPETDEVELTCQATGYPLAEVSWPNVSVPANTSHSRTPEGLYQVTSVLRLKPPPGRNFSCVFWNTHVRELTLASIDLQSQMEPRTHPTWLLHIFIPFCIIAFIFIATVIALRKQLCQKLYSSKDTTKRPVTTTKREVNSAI

B1: Compound 37 (peptide)
peptide: SNTSESFKFRVTQLAPKAQIKE-NH2
modifications: not fully specified (residue 8); printed as SNTSESFK(LAP)FRVTQLAPKAQIKE-NH2
B2: Compound 40 (peptide)
peptide: SNTSESFKFK(Palmitoyl)VTQLAPKAQIKE-NH2
modifications: not fully specified (residue 8)
B3: Compound 9 (peptide)
peptide: SNQTDKFRVTQLAPKAQIKE-NH2
modifications: not fully specified (residue 6); printed as SNQTDK (SNQTDK) FRVTQ LAPKAQIKE-NH2
B4: Compound 64 (peptide)
peptide: SNTSESFK(SNTSESF)FRVTELAPKAQIKE-NH2
modifications: lactam 13-17; reading uncertain
B5: Compound 36 (peptide)
peptide: SNTSESFKFRVTQLAKQIKE-NH2
modifications: not fully specified (residues 8, 16)
B6: Compound 82 (peptide)
peptide: SNWSEDLK(SNWSEDL)FQIIQLHPK(Palmitoyl)AKIEE-NH2
B7: Compound 38 (peptide)
peptide: LAPKFRVTQLAPKAQIKE-NH2
modifications: not fully specified (residue 4); printed as LAPK(LAP)FRVTQLAPKAQIKE-NH2
B8: Compound 61 (peptide)
peptide: {Biotin-Ahx}-EKIQAKPAYWNLVKDTQNS-NH2
modifications: not fully specified (residue 14)
B9: Compound 41 (peptide)
peptide: SNTSESFKFRVTQLAP-NH2
modifications: not fully specified (residue 8)
B10: Compound 45 (peptide)
peptide: SNTSESFKFRVTQLAPK(Octanoyl)AQIKE-NH2
modifications: not fully specified (residue 8)
B11: Compound 7 (peptide)
peptide: FRVTQKFRVTQLAPKAQIKE-NH2
modifications: not fully specified (residue 6)
B12: Compound 60 (peptide)
peptide: {Biotin-Ahx}-[dS][dN][dT][dS][dE][dS][dF][dK][dF][dR][dV][dT][dQ][dL][dA][dP][dK][dA][dQ][dI][dK][dE]-NH2
modifications: not fully specified (residue 8); printed as Biotin-Ahx-sntsesfk(sntsesf)frvtqlapkaqike-NH2
B13: Compound 84 (peptide)
peptide: SNTSESFKFRVTQLAPKAQIKE-NH2
modifications: not fully specified (residue 8)
B14: Compound 42 (peptide)
peptide: SNTSESFFRVTQKLAPKAQIKE-NH2
modifications: not fully specified (residue 13)
B15: Compound 10 (peptide)
peptide: SNQTDKVLNWYRMLAPKAQIKE-NH2
modifications: not fully specified (residue 6); printed as SNQTDK (SNQTDK) VLNWYRM LAPKAQIKE-NH2
B16: Compound 3 (peptide)
peptide: SNQTDKLAAFPEDSQPGQD-NH2
B17: Compound 46 (peptide)
peptide: SNTSESFKFRVTQLAPKAQIK(Octanoyl)E-NH2
modifications: not fully specified (residue 8)
B18: Compound 63 (peptide)
peptide: SNTSESFK(SNTSESF)FKVTQEAPKAQIKE-NH2
modifications: lactam 10-14; reading uncertain
B19: Compound 91 (peptide)
peptide: SNWSEDLKFQIIQLHPK(MPA‑NH‑CH2‑CH2‑O‑CH2‑CH2‑O‑CO)AKIEE-NH2
modifications: not fully specified (residue 8)
B20: Compound 8 (peptide)
peptide: SNTSESFKFRVTQLAPKAQIKE-NH2
modifications: not fully specified (residue 8)
B21: Compound 4 (peptide)
peptide: EDRSQPGQDCR-NH2
B22: Compound 49 (peptide)
peptide: EKIQAKPALQTVRFKFSESTNS
modifications: not fully specified; Retro inverso (All D-amino acid); branch fsestns on the side chain of lys 15 of the main chain; C-terminal amide
B23: Compound 62 (peptide)
peptide: SNTSESFK(SNTSESF)FRVTQLAPEAQIKE-NH2
modifications: lactam 17-21; reading uncertain
B24: Compound 69 (peptide)
peptide: SNWSEDLK(SNWSEDL)FQIIQLHPKAKIEE-NH2
B25: Compound 43 (peptide)
peptide: FRVTQLAPKAQIKE-NH2

How the values were obtained:
[1] = target: hPDL1 expressed on MDA-MB231 cells (human, UniProt Q9NZQ7 19-290); test: cell-based or functional assay
hPDL1 expressed on MDA-MB231 cells, sequence (Q9NZQ7 19-290): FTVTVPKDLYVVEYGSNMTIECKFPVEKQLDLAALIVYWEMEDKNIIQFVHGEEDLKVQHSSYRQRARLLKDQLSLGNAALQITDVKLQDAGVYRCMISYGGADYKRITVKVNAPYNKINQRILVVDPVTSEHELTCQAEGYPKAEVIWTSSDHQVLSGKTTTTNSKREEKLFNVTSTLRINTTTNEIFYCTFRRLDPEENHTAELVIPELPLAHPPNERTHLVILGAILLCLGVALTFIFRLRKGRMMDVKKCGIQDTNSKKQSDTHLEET

[2] = target: T1, recombinant hPDL-2 overexpressed on HEK …; test: flow cytometry, inhibition of soluble PD1-Fc binding to hPDL2-expressing HEK293 cells

Row | Binder | Percent rescue (100 nM, compared with 100 nM Comp 8) in mouse splenocyte proliferation CFSE based assay [1] [%] | EC50 [2] [nM]
1 | B1 | 89.6 | 
2 | B2 | 82 | 
3 | B3 | 11.3 | 
4 | B4 | 69.1 | 
5 | B5 | 89.7 | 
6 | B6 | 58.3 | 
7 | B7 | 51.5 | 
8 | B8 | 67 | 
9 | B9 | 5.1 | 
10 | B10 | 68 | 
11 | B11 | 61.5 | 
12 | B12 | 14.9 | 
13 | B13 | 80.5 | 
14 | B14 | 52.9 | 
15 | B15 | 10.6 | 
16 | B16 | 37.3 | 
17 | B17 | 67 | 
18 | B18 | 68 | 
19 | B19 | 69.4 | 
20 | B20 |  | 0.722
21 | B21 | 74.7 | 
22 | B22 | 73 | 
23 | B23 | 37 | 
24 | B24 | 48 | 
25 | B25 | 66 | 
